# Source: US11103562B2, “Composition comprising alkaline phosphatase for use in the treatment of arthritides” (AMRIF BV, priority 2017, dated 2021)
# Tested on: ED1-, ED2- and FRβ-positive macrophages in liver and spleen
# Experiment: Macrophage infiltration in liver and spleen of arthritic rats (ED1/ED2 immunohistochemistry, FRβ immunofluorescence)
# Type: in vivo, rat
# Experimental: The arthritic and contralateral knees from all rats were dissected in toto and fixed for 7 days at 4° C. in 10% freshly made paraformaldehyde in PBS with 2% sucrose (pH=7.3) prior to decalcification in osteosoft (101728, Merck, Germany) for ˜2.5 weeks at room temperature. Thereafter, knees were embedded in paraffin. Sections of 5 μm were cut through the centre of the joint in longitudinal direction and stained with haematoxylin and eosin (HE) to assess the degree of inflammation in synovial tissue. Liver and spleen sections from all rats were dissected and fixed in 4% paraformaldehyde for 24 h before embedding in paraffin. Sections of 5 μm were cut and stained initially with HE and then for macrophages Staining for macrophages with ED1 (homologous to human CD68), and ED2 (homologous to human CD163, a marker for M2 anti-inflammatory macrophages), or isotype control antibody was performed. Images were captured using a Leica 4000B microscope and Leica digital camera DC500 (Microsystems B. V. Rijswijk, The Netherlands).
# Liver and spleen tissues collected at the end of the study were snap frozen in liquid nitrogen and stored at −80° C. Tissues were embedded in appropriate media (OCT; SKU4583, Tissue-Tek, Netherlands), cut using a cryotome cryostat (−20° C.) (Leica, The Netherlands) and placed on Superfrost (4951PLUS4, ThermoFisher, The Netherlands) glass slides for immunofluorescence (IF) staining Sections of 8 μm were cut and stained with haematoxylin and eosin. […]
# Stained slides of liver and spleen sections of arthritic rats and AP-treated arthritic rats were blinded and counted by two independent observers for FRβ, ED1- and ED2-positive synovial macrophages. For quantification, representative areas of liver and spleen sections were divided into 4 regions, each representing a central pulp and vein, respectively. The FRβ, ED1- and ED2-positive macrophages were counted at 400× magnification as described above. […] As a reference liver and spleen sections of healthy rats were analyzed as control.
molecule,measurement,setting,value
"AP: human recombinant placenta alkaline phosphatase (hRESCAP; TNO, Zeist), an ectophosphatase (protein, UniProt P05187 23-506, looked up) Alkaline phosphatase, …: IIPVEEENPDFWNREAAEALGAAKKLQPAQTAAKNLIIFLGDGMGVSTVTAARILKGQKKDKLGPEIPLAMDRFPYVALSKTYNVDKHVPDSGATATAYLCGVKGNFQTIGLSAAARFNQCNTTRGNEVISVMNRAKKAGKSVGVVTTTRVQHASPAGTYAHTVNRNWYSDADVPASARQEGCQDIATQLISNMDIDVILGGGRKYMFRMGTPDPEYPDDYSQGGTRLDGKNLVQEWLAKRQGARYVWNRTELMQASLDPSVTHLMGLFEPGDMKYEIHRDSTLDPSLMEMTEAALRLLSRNPRGFFLFVEGGRIDHGHHESRAYRALTETIMFDDAIERAGQLTSEEDTLSLVTADHSHVFSFGGYPLRGSSIFGLAPGKARDRKAYTVLLYGNGPGYVLKDGARPDVTESESGSPEYRQQSAVPLDEETHAGEDVAVFARGPQAHLVHGVQEQTFIAHVMAFAACLEPYTACDLAPPAGTTD",reduction of both ED1- and ED2-positive infiltrating macrophages in spleen,AP-treated vs saline-treated arthritic rats,~30%
same,decrease of both ED1- and ED2-positive infiltrating macrophages in liver,"AP-treated vs saline-treated arthritic rats, p<0.001",~50%
same,FRβ-positive macrophages in liver and spleen,"after AP treatment, arthritic rats",lowered number
